Experiment [1] concerns the target T1, full length C57BL/6 mouse SIRPα stably expressed on CHOK1 cells (mouse (C57BL/6), UniProt P97797 32-513).
T1 construct: whole, on cells; also called CHOK1-C57BL/6 mouse SIRPα-2.22 cells
T1 sequence (looked up): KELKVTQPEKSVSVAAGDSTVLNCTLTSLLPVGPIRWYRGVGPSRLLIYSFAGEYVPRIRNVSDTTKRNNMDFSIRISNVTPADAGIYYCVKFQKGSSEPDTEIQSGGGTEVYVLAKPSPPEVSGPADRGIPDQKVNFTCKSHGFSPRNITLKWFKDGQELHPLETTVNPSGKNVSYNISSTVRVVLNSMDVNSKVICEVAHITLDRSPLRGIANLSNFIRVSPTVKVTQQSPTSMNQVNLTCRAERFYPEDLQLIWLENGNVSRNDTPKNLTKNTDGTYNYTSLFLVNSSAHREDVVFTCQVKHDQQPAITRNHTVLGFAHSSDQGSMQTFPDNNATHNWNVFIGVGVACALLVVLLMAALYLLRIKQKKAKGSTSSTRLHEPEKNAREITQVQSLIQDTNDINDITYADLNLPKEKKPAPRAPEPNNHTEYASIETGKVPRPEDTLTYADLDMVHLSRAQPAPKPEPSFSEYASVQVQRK
Briefly: FACS on CHOK1-C57BL/6 mouse SIRPα-2.22 cells. The protocol: Species cross reactivity of the purified hybridoma antibodies against human, cyno and mouse SIRPα was determined by FACS assay using CHOK1-human SIRPα v1-1B4 cells, CHOK1-cyno SIRPα-2A2 cells, and CHOK1-C57BL/6 mouse SIRPα-2.22 cells, which stably expressing SIRPα protein. Briefly the antibodies were incubated with 2×10⁵ target cells at 4° C. for 1 hour. After washing, fluorescence labeled anti-mouse or anti-human IgG 2nd antibody (Life Technologies) was added and incubated at 4° C. for 1 hour. Geometric median fluorescence intensity was detected and EC₅₀ was calculated. In particular, it is noted, in contrast to the other antibodies tested in the same experiment, 060 cannot bind with cyno SIRPα and 035 has cross reactivity against C57BL/6 mouse SIRPα.

For experiment [2], the target named is T2, 6×His tagged C57BL/6 mouse SIRPα ECD recombinant protein (mouse (C57BL/6), UniProt P97797 32-373).
T2 construct: extracellular domain; bought; also called mSIRPα (C57BL/6); mouse SIRPα (C57BL/6) ECD
T2 sequence: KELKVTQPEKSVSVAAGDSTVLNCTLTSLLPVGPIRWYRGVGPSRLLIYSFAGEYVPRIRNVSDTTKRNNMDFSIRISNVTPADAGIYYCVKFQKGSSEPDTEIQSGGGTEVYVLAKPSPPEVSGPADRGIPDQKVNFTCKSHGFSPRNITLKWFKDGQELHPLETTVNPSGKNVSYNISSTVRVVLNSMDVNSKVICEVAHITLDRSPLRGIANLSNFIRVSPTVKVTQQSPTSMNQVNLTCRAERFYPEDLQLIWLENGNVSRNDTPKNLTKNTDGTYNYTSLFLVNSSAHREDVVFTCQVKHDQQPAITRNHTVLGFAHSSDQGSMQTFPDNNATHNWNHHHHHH
Briefly: ELISA on coated mouse SIRPα (C57BL/6) ECD, antibody at 10, 1 and 0.1 ug/ml [right panel mSIRPα ECD (C57BL/6]. (ELISA stands for enzyme-linked immunosorbent assay.)

B1: chimeric antibody 035c (antibody, V domains shown)
VH: QIQLVQSGPELRKPGETVKISCKASGYSFTNYAMNWVKQAPGKVLKWMGFINTYTGEPTYADDFKGRFAFSLETSASTAYLQINNLKNEDTATYFCTRTRGYYDFDGGAFDYWGQGTSLTVSS
VL: DIVMTQSQKFMSTSIGDRVSVTCKASQNVGTHLAWYQQKPGQSPKALIFSASYRYIGVPDRFTGSGSGTDFTLTITNVQSEDLAEYFCQQYNTYPLTFGAGTKLELK
What is called EC50 (read off the curve) is the concentration at which the effect is half-maximal. Read a high EC50 (read off the curve) as weaker potency. On to B1, for which the “EC50 (read off the curve)” value in experiment [1] is ~0.3 µg/mL.

B2: chimeric antibody 032c (antibody, V domains shown)
VH: EVRLEESGGGLVQPGGSMKLSCVVSGFTFRNYWMNWVRQSPERGLEWIAEITLKSNTYATHYAESVKGRFAISRDDSKSSFYLQMNDLRPEDTGIYYCTTFTKVVADWHLDVWGAGTTVTVSS
VL: DVLMTQTPLSLPVNLGDQASISCRSSQNIVHSNGNTYLEWYLQKPGQSPKLLIYKVSNRFSGVPDRFSGSGSGTDFTLRISRVEAEDLGVYYCFQGSHVPFTFGSGTKLEIK
For B2, the binding result in experiment [2] is given as “no binding (tested: 10 ug/ml)”.
